Results reported in patent publication US20240117030A1 (Pfizer, published 2024).
Changes are numbered by the printed parent chain. Blank lines part the entries; values can stand above or below the binder they belong to.

Key:
human IL-12 (p35 + p40) = target: T1, human IL-12 (p35 + p40) (human, UniProt P29459 23-219; P29460 23-328); assay: cell-based or functional assay
T1 sequence (looked up) 1: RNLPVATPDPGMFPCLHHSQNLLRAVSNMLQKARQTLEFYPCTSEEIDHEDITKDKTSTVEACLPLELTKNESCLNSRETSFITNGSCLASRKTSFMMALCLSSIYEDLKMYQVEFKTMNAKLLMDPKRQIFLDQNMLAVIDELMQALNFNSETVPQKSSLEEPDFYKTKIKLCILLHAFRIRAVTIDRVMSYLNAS
T1 sequence (looked up) 2: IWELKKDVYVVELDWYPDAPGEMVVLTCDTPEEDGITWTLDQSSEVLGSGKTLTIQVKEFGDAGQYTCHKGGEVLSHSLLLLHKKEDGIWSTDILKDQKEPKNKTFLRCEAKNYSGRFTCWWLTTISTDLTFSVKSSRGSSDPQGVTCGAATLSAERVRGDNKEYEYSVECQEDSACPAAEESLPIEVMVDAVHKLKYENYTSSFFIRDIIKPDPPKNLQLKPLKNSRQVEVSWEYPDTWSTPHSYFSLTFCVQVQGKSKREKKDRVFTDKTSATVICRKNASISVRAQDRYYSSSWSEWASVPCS

cynomolgus monkey IL-4 = target: T2, cynomolgus monkey IL-4 (cynomolgus monkey, UniProt P79339 25-153); assay: KinExA, fixed antigen
T2 construct: mature; also called cy IL-4; cyno IL-4
T2 sequence (looked up): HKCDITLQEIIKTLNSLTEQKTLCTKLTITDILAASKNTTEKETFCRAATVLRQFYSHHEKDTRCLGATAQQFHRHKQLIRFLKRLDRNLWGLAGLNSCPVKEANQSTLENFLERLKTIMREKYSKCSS

human IL-4 [1] = target: T3, human IL-4 (human, UniProt P05112 25-153); assay: cell-based or functional assay
T3 sequence (looked up): T2 sequence (looked up) with K26E, I29V, L33F

human IL-12 = target: T4, human IL-12 (human, UniProt P29459 23-219; P29460 23-328); assay: cell-based or functional assay
T4 sequence (looked up) 1: T1 sequence (looked up) 1
T4 sequence (looked up) 2: T1 sequence (looked up) 2

cynomolgus monkey IL-12 = target: T5, cynomolgus monkey IL-12 (cynomolgus monkey, UniProt A0A2K5V4L8 57-253; G7P6S2 23-328); assay: cell-based or functional assay
T5 sequence (p35): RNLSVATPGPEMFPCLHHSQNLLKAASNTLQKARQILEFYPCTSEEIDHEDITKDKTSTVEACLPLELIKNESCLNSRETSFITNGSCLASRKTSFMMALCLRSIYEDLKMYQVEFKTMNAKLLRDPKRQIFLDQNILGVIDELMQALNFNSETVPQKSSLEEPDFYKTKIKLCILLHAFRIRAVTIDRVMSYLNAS
T5 sequence (p40): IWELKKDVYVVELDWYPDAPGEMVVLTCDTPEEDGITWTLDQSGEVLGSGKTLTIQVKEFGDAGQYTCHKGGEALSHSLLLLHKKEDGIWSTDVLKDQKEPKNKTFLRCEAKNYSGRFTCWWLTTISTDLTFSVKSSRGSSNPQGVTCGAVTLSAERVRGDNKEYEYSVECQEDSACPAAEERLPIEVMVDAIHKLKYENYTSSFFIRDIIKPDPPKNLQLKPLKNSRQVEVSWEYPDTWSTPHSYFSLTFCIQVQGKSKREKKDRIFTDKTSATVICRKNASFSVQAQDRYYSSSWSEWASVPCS

human IL-23 = target: T6, human IL-23 (human, UniProt Q9NPF7 20-189; P29460 23-328); assay: cell-based or functional assay
T6 sequence (looked up) 1: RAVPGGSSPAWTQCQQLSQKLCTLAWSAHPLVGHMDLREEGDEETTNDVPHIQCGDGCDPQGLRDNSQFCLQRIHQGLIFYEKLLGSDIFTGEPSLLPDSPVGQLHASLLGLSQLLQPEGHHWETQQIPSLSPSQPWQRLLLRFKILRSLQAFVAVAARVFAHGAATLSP
T6 sequence (looked up) 2: T1 sequence (looked up) 2

human IL-13 [2] = target: human IL-13 (human, UniProt P35225 35-146); assay: cell-based or functional assay
cynomolgus monkey IL-13 = cynomolgus monkey IL-13 (cynomolgus monkey, UniProt Q0PW92 19-132); assay: cell-based or functional assay
Sequence of cynomolgus monkey IL-13 (Q0PW92 entry or part of it limits assumed): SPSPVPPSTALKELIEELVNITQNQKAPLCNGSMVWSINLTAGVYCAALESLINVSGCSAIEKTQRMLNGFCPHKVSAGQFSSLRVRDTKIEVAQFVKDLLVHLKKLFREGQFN

cynomolgus monkey IL-23 = cynomolgus monkey IL-23 (cynomolgus monkey, UniProt H6WS56 20-189); assay: cell-based or functional assay
human IL-4 [3] = target: T7, human IL-4 (human, UniProt P05112 25-153); assay: cell-based or functional assay; remark: listed apart in the source
T7 sequence (looked up): T2 sequence (looked up) with K26E, I29V, L33F

human IL-13 [4] = target: human IL-13 (human, UniProt P35225 35-146); assay: cell-based or functional assay; remark: listed apart in the source
[5] = target: T8, recombinant human IL-33 (wild type, Ser112-Thr270) (human, UniProt O95760 112-270); assay: cell-based or functional assay
T8 sequence (looked up): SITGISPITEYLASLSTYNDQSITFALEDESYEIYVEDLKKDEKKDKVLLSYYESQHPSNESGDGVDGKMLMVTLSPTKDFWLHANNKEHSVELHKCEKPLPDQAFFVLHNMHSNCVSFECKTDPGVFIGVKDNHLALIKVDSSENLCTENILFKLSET

- anti-IL12 bioassay IC50 (human IL-12 (p35 + p40)): 0.286 nM
B1: p40-0003 (antibody, human IgG1, kappa, V domains shown)
VH: EVQLVQSGAEVKKPGESLKISCKGSGYSFTTYWLGWVRQMPGKGLDWIGIMSPVDSDIRYSPSFQGQVTMSVDKSITTAYLQWNSLKASDTAMYYCARRRPGQGYFDFWGQGTLVTVSS
VL: DIQMTQSPSSLSASVGDRVTITCRASQGISSWLAWYQQKPEKAPKSLIYAASSLQSGVPSRFSGSGSGTDFTLTISSLQPEDFATYYCQQYNIYPYTFGQGTKLEIKR

- fold of the human IL-4 affinity value (cynomolgus monkey IL-4): ≤ 1.2 fold
- fold IL-4 neutralization activity over dupilumab (monocyte CD23 bioassay) (human IL-4 [1]): ~10 fold
- fold lower potency than mAb IL4-1040 (monocyte CD23 bioassay) (human IL-4 [1]): ~3.2 fold
- fold less potent than p40-0003, Kit-225 pSTAT4 assay (human IL-12): 2.9 fold
- fold less potent than p40-0003, whole blood pSTAT4 assay (human IL-12): 1.5 fold
- fold difference in potency between human and cynomolgus monkey IL-12, Kit-225 assay (cynomolgus monkey IL-12): < 2 fold
- fold less potent than p40-0003, Kit-225 pSTAT3 assay (human IL-23): 2.6 fold
- fold less potent than p40-0003, whole blood pSTAT3 assay (human IL-23): 2.4 fold
- fold IL-13 neutralization activity over dupilumab (monocyte CD23 bioassay) (human IL-13 [2]): 8.9 fold
- fold lower potency than IL13-0001 (monocyte CD23 bioassay) (human IL-13 [2]): ~2.4 fold
- fold reduced neutralization compared to the human cytokine (monocyte CD23 bioassay) (cynomolgus monkey IL-13): ~4 fold
- fold difference in potency between human and cynomolgus monkey IL-23, Kit-225 assay (cynomolgus monkey IL-23): < 2 fold
B2: IL413P40-0705 (trispecific antibody)
heavy: EVQLVQSGAEVKKPGESLKISCKGSGYSFTTYWLGWVRQMPGKGLDWIGIMSPVDSDIRYSPSFQGQVTMSVDKSITTAYLQWNSLKASDTAMYYCARRRPGQGYFDFWGQGTLVTVSSASTKGPSVFPLAPSSKSTSGGTAALGCLVKDYFPEPVTVSWNSGALTSGVHTFPAVLQSSGLYSLSSVVTVPSSSLGTQTYICNVNHKPSNTKVDKKVEPKSCRKTHTCPPCPAPEAAGAPSVFLFPPKPKDTLMISRTPEVTCVVVDVSHEDPEVKFNWYVDGVEVHNAKTKPREEQYNSTYRVVSVLTVLHQDWLNGKEYKCKVSNKALPAPIEKTISKAKGQPREPQVYTLPPSREEMTKNQVSLTCLVKGFYPSDIAVEWESNGQPENNYKTTPPVLDSDGSFFLYSRLTVDKSRWQQGNVFSCSVLHEALHSHYTQKSLSLSPGK
chain 1: DIQMTQSPSSLSASVGDRVTITCKASESVDHFGWSLVHWYQQKPGKAPKLLIYRASNLESGVPSRFSGSGSGTDFTLTISSLQPEDFATYYCQQSNEDPWTFGGGTKVEIKRTVAAPSVFIFPPSDEQLKSGTASVVCLLNNFYPREAKVQWKVDNALQSGNSQESVTEQDSKDSTYSLSSTLTLSKADYEKHKVYACEVTHQGLSSPVTKSFNRGECGGGGSEVTLRESGPALVKPTQTLTLTCTFSGFSLSNFGEGLSWIRQPPGKGLEWLAHIYWDDDKRYNPSLKSRLTISKDTSRNQVVLTMTNMDPVDTATYYCARRETVFYWYFDVWGQGTTVTVSSASTKGPSVFPLAPSSKSTSGGTAALGCLVKDYFPEPVTVSWNSGALTSGVHTFPAVLQSSGLYSLSSVVTVPSSSLGTQTYICNVNHKPSNTKVDKKVEPKSCEKTHTCPPCPAPEAAGAPSVFLFPPKPKDTLMISRTPEVTCVVVDVSHEDPEVKFNWYVDGVEVHNAKTKPREEQYNSTYRVVSVLTVLHQDWLNGKEYKCKVSNKALPAPIEKTISKAKGQPREPQVYTLPPSREEMTKNQVSLTCEVKGFYPSDIAVEWESNGQPENNYKTTPPVLDSDGSFFLYSKLTVDKSRWQQGNVFSCSVLHEALHSHYTQKSLSLSPGK
light 1: not shown
light 2: DIQMTQSPSSLSASVGDRVTITCRASQSVDEEGDSYMNWYQQKPGKAPKLLIYAASNLESGVPSRFSGSGSGTDFTLTISSLQPEDFATYYCQQSNKDPPTFGGGTKVEIKRTVAAPSVFIFPPSDEQLKSGTASVVCLLNNFYPREAKVQWKVDNALQSGNSQESVTEQDSKDSTYSLSSTLTLSKADYEKHKVYACEVTHQGLSSPVTKSFNRGEC
chain 2: EVQLVESGGGLVQPGGSLRLSCAASGFTFSSYAMSWVRQAPGKGLEWVASISSGDTTYYPDSVKGRFTISRDNAKNSLYLQMNSLRAEDTAVYYCARNEGYYFGLTLWGQGTLVTVSSASTKGPSVFPLAPSSKSTSGGTAALGCLVKDYFPEPVTVSWNSGALTSGVHTFPAVLQSSGLYSLSSVVTVPSSSLGTQTYICNVNHKPSNTKVDKKVEPKSC
notes: EE/RR, LS; also called IL134P40-0705; Tri-Fab-Fc IL413p40-0705

- a-hIL-4 IC50 [pM] (human IL-4 [3]): 7.1 pM
- a-hIL-13 IC50 [pM] (human IL-13 [4]): 12.4 pM
- a-IL-33 bioassay (WT) IC50 [pM] [5]: 28 pM
B3: IL13433-1042 (other)
heavy: EVQLVESGGGLVQPGGSLRLSCAASGFTFSSYWMYWVRQAPGKGLEWVAAITPNAGEDYYPESVKGRFTISRDNAKNSLYLQMNSLRAEDTAVYYCARGQYYYTKYSLGYWGQGTLVTVSSASTKGPSVFPLAPSSKSTSGGTAALGCLVKDYFPEPVTVSWNSGALTSGVHTFPAVLQSSGLYSLSSVVTVPSSSLGTQTYICNVNHKPSNTKVDKKVEPKSCRKTHTCPRCPAPEAAGAPSVFLFPPKPKDTLMISRTPEVTCVVVDVSHEDPEVKFNWYVDGVEVHNAKTKPREEQYNSTYRVVSVLTVLHQDWLNGKEYKCKVSNKALPAPIEKTISKAKGQPREPQVYTLPPSREEMTKNQVSLTCLVKGFYPSDIAVEWESNGQPENNYKTTPPVLDSDGSFFLYSRLTVDKSRWQQGNVFSCSVLHEALHSHYTQKSLSLSPGK
chain 1: B2 chain 1 with P455E
light 1: DIQMTQSPSSLSASVGDRVTITCRASQPIHNHLDWYQQKPGKAPKLLIYFGKNLQEGVPSRFSGSGSGTDFTLTISSLQPEDFATYYCFQYKKGWSFGGGTKVEIKRTVAAPSVFIFPPSDEQLKSGTASVVCLLNNFYPREAKVQWKVDNALQSGNSQESVTEQDSKDSTYSLSSTLTLSKADYEKHKVYACEVTHQGLSSPVTKSFNRGEC
light 2: B2 light 2 with K97E
chain 2: B2 chain 2
